Data taken from patent US20080064629A1, “Amphiregulin as a Protective Agent in Acute Hepatic Injury” (priority 2004, published 2008).

Key:
hepatocytes = assay: Apoptosis induced by other agents (TNFα plus galactosamine, okadaic acid, TGFβ) in hepatocytes; assay type: cell-based; conditions: okadaic acid and TGFβ, data not shown
rat hepatocytes = assay: DNA synthesis ([3H]thymidine incorporation) in cultured rat hepatocytes; assay type: cell-based; conditions: increasing concentrations of AR, 30 h of treatment
Method: For DNA synthesis, rat hepatocytes were plated to a density of 3×10^4 cells/well in 96-well plates coated with collagen in MEM medium supplemented with 10% FCS. Five hours after plating, the medium was changed and cells were maintained in absence of serum for another 20 hours. DNA synthesis was assayed after 30 h of treatment with AR. A pulse of [^3H]thymidine was administered (1 μCi/well)(Amersham Biosciences, Piscataway, N.J., USA) 22 h after the addition of AR. Cells were harvested, and the incorporation of thymidine was determined with a scintillation counter. Evaluations were made of the effect of AR on DNA synthesis in the presence of MEK1 inhibitor, PD98059, PI-3K inhibitor, LY294002, p38 MAPK inhibitor, SB202190, JNK inhibitor, SP600125, and of the EGF-R tyrosine kinase activity inhibitor, PD153035—all supplied by Calbiochem.

B1: amphiregulin (protein)
chain: SVRVEQVVKPPQNKTESENTSDKPKRKKKGGKNGKNRRNRKKKNPCNAEFQNFCIHGECKYIEHLEAVTCKCQQEYFGERCGEKSMKTHSMIDSSLSK
notes: polypeptide growth factor belonging to the EGF family, ligand of EGF receptor; human recombinant AR (Sigma) used
cytoprotective activity against apoptosis induced by other agents (hepatocytes): cytoprotective activity was also seen
DNA synthesis, incorporation of [3H]thymidine to DNA (rat hepatocytes): stimulating the incorporation of [^3H]thymidine to DNA in a dose-dependent manner
